Source: patent publication US20200319204A1
Each block holds one substance with its values, some of them ahead of it.

What was measured:
[1] = target: unmodified nucleosome (internal standard) (human) (UniProt Q71DI3); assay: ICeChIP-qPCR, capture of barcoded nucleosome standards doped into mESC nucleosomes
[2] = target: semisynthetic H3K36me3 nucleosome (internal standard) (human) (UniProt Q71DI3); assay: as above
[3] = target: semisynthetic H3K4me3 nucleosome (internal standard ladder) (human) (UniProt Q71DI3); assay: as above
[4] = target: semisynthetic H3K27me3 nucleosome (internal standard ladder) (human) (UniProt Q71DI3); assay: multi-standard ICeChIP-seq, six nucleosome ladders doped equimolar into mESC nuclei
[5] = target: semisynthetic H3K9me3 nucleosome (internal standard ladder) (human) (UniProt Q71DI3); assay: as above

enrichment (internal standard, ICeChIP-qPCR) [1]: 1.9
enrichment (internal standard, ICeChIP-qPCR) [2]: 2.8
apparent specificity (on target signal against H3K36me3 nucleosome) [3]: 30 fold
enrichment (internal standard, ICeChIP-qPCR) [3]: 81
Substance: H3K4me3 antibody (Active Motif AM39159)

percent of the on-target signal [4]: 10%
Substance: H3K9me3 antibody M309M3-A (Hattori et al., 2013)

percent of the on-target signal [5]: 26%
Substance: H3K27me3 antibody (Millipore 07-449)
